The values below come from paper PMC3542407 (Journal of biotechnology, 2012).

In one series the target is LlAdhA (Lactococcus lactis, UniProt Q9CEN0, Y50F/N110S/I212T/L264V). As to the kind of experiment: NADH consumption at […] nm. As to conditions: read-out: LlAdhA^29C8 / KM; 200 µM NADH; 100 mM Tris pH 7, 1 mM DTT; 25°C.
In a further series the test system is O=CC=Cc1ccccc1. As to the kind of experiment: purified protein. In kind it is biochemical, Lactococcus lactis. As to conditions: 200 µM NADH, 100 mM Tris pH 7, 1 mM DTT, 25°C.
A further series has as its system O=Cc1ccco1. As to the kind of experiment: purified protein. The series is classed as biochemical, Lactococcus lactis. The following applies: 200 µM NADH, 100 mM Tris pH 7, 1 mM DTT, 25°C.
The next series has as its system CC(C)C=O. As to the kind of experiment: purified protein. As to conditions: 200 µM NADH, 100 mM Tris pH 7, 1 mM DTT, 25°C.
Another series deals with CC=O. Nature of the series: purified protein. As to conditions: 200 µM NADH, 100 mM Tris pH 7, 1 mM DTT, 25°C.
In another series the test system is O=Cc1ccc(CO)o1. Nature of the series: purified protein. The following applies: 200 µM NADH, 100 mM Tris pH 7, 1 mM DTT, 25°C.

Turning to `O=Cc1ccco1` [2-furaldehyde], on LlAdhA, the Km is 200 µM.
A word on the kcat: it is the number of substrate molecules converted per active site and unit of time at saturation. By kcat/Km is commonly meant the second-order rate constant that governs catalysis at low substrate concentration. As for “LlAdhA (Lactococcus lactis subsp. lactis Il1403)”, the Km in the series with O=CC=Cc1ccccc1 stood at 700 µM; in the series on O=Cc1ccco1, 390 µM; with CC(C)C=O, 12000 ± 1000 µM; in the series on CC=O, 400 µM; with O=Cc1ccc(CO)o1, 22000 µM. Besides, the kcat was found to be 27 s⁻¹ in the series with O=CC=Cc1ccccc1; 22 s⁻¹ with O=Cc1ccco1; 30 ± 1 s⁻¹ with CC(C)C=O; 35 s⁻¹ with CC=O; 19 s⁻¹ in the series with O=Cc1ccc(CO)o1. Besides, the kcat/Km in the series on O=CC=Cc1ccccc1 is 39000 M⁻¹ s⁻¹; in the series with O=Cc1ccco1 it was 57000 M⁻¹ s⁻¹; in the series on CC(C)C=O, 2800 ± 200 M⁻¹ s⁻¹; with CC=O, 94000 M⁻¹ s⁻¹; in the series with O=Cc1ccc(CO)o1 it was 880 M⁻¹ s⁻¹.
On to “LlAdhA (Lactococcus lactis subsp. lactis Il1403; I212T/L264V/N110S/Y50F)”, for which, in the series on CC(C)C=O, the Km stood at 680 ± 70 µM, the turnover number (kcat) came to 300 ± 4 s⁻¹ and the kcat/Km is 440000 ± 50000 M⁻¹ s⁻¹. In the series on CC=O, the Km was determined as 920 µM, the kcat stood at 58 s⁻¹ and the kcat/Km came out at 63000 M⁻¹ s⁻¹. Moreover, in the series on O=Cc1ccc(CO)o1, the Km is 570 µM, the turnover number (kcat) amounted to 29 s⁻¹ and the catalytic efficiency (kcat/Km) turned out to be 51000 M⁻¹ s⁻¹.
Regarding “LlAdhA (Lactococcus lactis subsp. lactis Il1403; I212T/L264V/Y50F)”, in the series on CC(C)C=O, the Km stood at 1700 ± 10 µM, the kcat worked out at 140 ± 1 s⁻¹ and the kcat/Km is 82000 ± 1000 M⁻¹ s⁻¹. In addition, in the series with CC=O, the Km came out at 500 µM, the kcat is 31 s⁻¹ and the specificity constant (kcat/Km) came out at 57000 M⁻¹ s⁻¹. In the series on O=Cc1ccc(CO)o1, the Km was 670 µM, the kcat was 23 s⁻¹ and the catalytic efficiency (kcat/Km) is 34000 M⁻¹ s⁻¹.
With “LlAdhA (Lactococcus lactis subsp. lactis Il1403; L264V/Y50F)”, in the series on CC(C)C=O, the Km worked out at 1600 ± 200 µM, the kcat was determined as 50 ± 1 s⁻¹ and the specificity constant (kcat/Km) amounted to 32000 ± 4000 M⁻¹ s⁻¹.
